The supplement of paper PMC12764529
± gives the half width of the 95% confidence interval.

Key:
[1] = folding stability dG unfold (combined trypsin and chymotrypsin); higher = more stable
Experimental: (§1)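 Folding stability of de novo designed mini-proteins (<80 aa, no Cys; designed by TrROS, TrMRF, ProteinMPNN and the joint model) was measured by cDNA display proteolysis with trypsin and chymotrypsin. Each protease was used at 11 concentrations in a threefold dilution series plus a no-protease condition. K50 was inferred by Bayesian fitting of sequencing counts, and dG unfold was derived against a sequence-predicted unfolded-state K50 (Tsuboyama et al. method). Sequences shown include variable-length N-terminal GS-type padding (SAGGSAGG...) inside a display construct carrying a PA tag. Rows were kept only if the AF2 dimer inter-PAE was >15, to exclude likely homo-oligomers.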

[2] = folding stability dG unfold from chymotrypsin proteolysis; higher = more stable
Experimental: as §1

Sequence	folding stability dG unfold [1] [kcal/mol]	folding stability dG unfold [2] [kcal/mol]
SAGGSAGGSKMKKITIEVPTEEERKALEEAIKKGEPEVEITTKNGKKIKIKKIEIKEIKIEKKSAGGSAGGS [r12_334_TrROS_Hall]	0.758 ± 0.42	1.58 ± 0.14
SAGGSAGGSAVVYDENTAIVKTPNKDYLLKVKVGDTVDIPDSAGIPVPVKVEKDFPIPPSELSAGGSAGGSA [r18_244_JUSTAS]	-0.943 ± 0.43	-0.38 ± 0.12
SSSMTIAKTEVETYPDGVIRTKETFPGSDTYREFDIPVDPSTGKMPVKSTLYDPKTGKSIETTSEIELLESA [r9_825_JUSTAS]	-0.884 ± 0.64	-0.537 ± 0.33
SAGGMTVTIESVERLPGGVEVRRMVIETLDPNNPTPSTVERELVTEFTPSVDPEGRPGRLARREEVLGSAGG [r13_612_JUSTAS]	-0.237 ± 0.15	0.0887 ± 0.12
SDLQWEFPVKKPKDQAEQAVEKAKKEFPGFKEVDDIDVERNPDNYRIKMRIRDDKMPPEVADKLRKALQDSA [r9_195_TrROS]	< -1	-0.454 ± 0.46
SAGGSAGGSPWQVTHETVTLPEYDPSSDKPIREVTVTVTTETDPTTGATTVSLNLPSDFLRELRSAGGSAGG [r6_206_JUSTAS]	-0.123 ± 0.22	0.291 ± 0.14
SAGGSAGGSSGLTLLEETEISPGPPVPAIPATLPVKVDGKTVPLPITLTPEELAALRAELLRRSAGGSAGGS [r20_148_JUSTAS]	0.364 ± 0.093	0.893 ± 0.088
SAGGDYDYEKDPNKYRVKERDKNGKILGEKEVEVKPPPIVIDGLPEEDLQEFQDKFPNIPITINPGAISAGG [r13_235_TrROS]	< -1	-0.271 ± 0.5
SAGGSAGHMIEKVTTTSPDNTTTTVSLTPPDAPLDIKLPNGASATQTPLPGGRLRVTTTTTTPAAASAGGSA [r15_523_JUSTAS]	0.338 ± 0.21	0.841 ± 0.062
SAGGSAGGSTITGRFESPEGINELANEFPGVEIFEDPENNWIYVEIEIKPPPPPPPEDQKNNKSAGGSAGGS [r20_191_TrROS]	0.35 ± 0.3	0.916 ± 0.078
SAGGNRIPIPVKEIANNLNEEGWEIDEVEIYNPDDGEPKGTIPPGDPIEIPPNAPNMTIKPKIKPRKSAGGS [r8_243_TrROS]	-0.169 ± 0.13	0.0841 ± 0.064
SAGGSAGGSAGGSHPVKITEITEFNPGDNRMRIDIKHPNGGKKEIVVPGMPVEEILNAISAGGSAGGSAGGS [r4_357_TrROS]	-0.635 ± 0.21	0.0992 ± 0.031
SAGGSAGGSPAIRVERDPETDVLLAEIGHPDGVPALARISPATGTVTVLEGGKLVEVPLPEIGSAGGSAGGS [r12_650_TrMRF]	0.113 ± 0.13	0.627 ± 0.018
SAGGPEAKIEIYKLPDGYYFISVETPDNGKPMSIPIPPGEEKKIKIEPGAPIRDISIYPVKPGDPEAFSAGG [r13_122_TrROS]	-0.158 ± 0.3	0.202 ± 0.33
SAGGSAGGSAGVVYPLAGRPVRIDTSATDSLVVTTEPPDGTRTTRTYPDMDLDEVLAALASAGGSAGGSAGG [r11_934_JUSTAS]	0.0129 ± 0.12	0.639 ± 0.072
SPEFKIAEVRVEAFPDGTVKAEVRFEGGTETAVFDAPVDPETGVVPVRARIYNPETGEVSEFTATGRIGASA [r9_825_TrMRF]	-0.325 ± 0.17	0.0658 ± 0.16
SAGGSAGGSAGGSGRVEIELEFKLENGFYVRIKAEIEFEEDGKIRIKVEIELLPEELEESAGGSAGGSAGGS [r4_297_TrROS_Hall]	3.89 ± 0.41	3.67 ± 0.34
SAGGSAGGSAGMEPLKEIEVPFPGGWSIEIEVYPNGIKIEPNPNFDNPQMKKRILDALNPSAGGSAGGSAGG [r11_372_TrROS]	-0.445 ± 0.42	-0.0677 ± 0.26

Sequence	folding stability dG unfold [1] [kcal/mol]	folding stability dG unfold [2] [kcal/mol]
SAGGSAGGSAGGSSVSVSFDPATGTRTVTYTTLDPSNGKILSSTTSTTAVALAATPAAASAGGSAGGSAGGS [r10_842_JUSTAS]	-0.288 ± 0.17	0.661 ± 0.058
SAGGSASMKTTTVTLPLDPAQLAEAIAALREAVAPDEAAEVTFVHPHAPTSLTVTISRSDVTLNAASAGGSA [r15_257_JUSTAS]	-0.17 ± 0.11	0.706 ± 0.074
SAGGSAGGSAGELPEGAKVEVREETFTRPDGYLVKRTEVRLEDTDELVTSEEVIEPGEEPSAGGSAGGSAGG [r11_338_TrROS_Hall]	0.378 ± 0.06	0.899 ± 0.086
SAGGSAMTTRATATPQPDGTVTVTVEAPGFSRTFTAPPGDLAASLAAVERELPPGEPRVVTSAAAGSAGGSA [r15_925_JUSTAS]	-0.233 ± 0.067	0.346 ± 0.059
SAGGIRLEIPPNWTPEEAKEQAEELANFFAKKGPMEVEDIEYKRDEKDGNPMIVGEIRDPKNGKEWTISAGG [r13_669_TrROS]	-0.754 ± 0.68	-0.127 ± 0.3
SAGGMPDRVRPFPFRAPVLRLDPPEPEEVEVVAFVFPDNRVLALARSPDPGRVLLAVDDGDRVLVADASAGG [r13_117_TrMRF]	-0.477 ± 0.19	0.12 ± 0.15
SPKWKPIAEIPFKNGDPDEFIDKLKDAFPPDPPVQITFNGPDGPPMRIWIDPDEGRIDDIYPGGQIRIIPSA [r9_853_TrROS]	< -1	-0.986 ± 0.39
SAGGSAGGSAGGSMSTLSLTIPVGGEPVSVTVQQLYDPTKNTTTTLLPPEAAAVIARAAGSAGGSAGGSAGG [r11_91_JUSTAS]	< -1	-0.449 ± 0.19
MKITVTITSLGDKYTMTAEIELPDGTVETITKEFDSPEEAKKYIEKLVKELPPGLVEIEEIKFNPPDGTADS [r1_169_JUSTAS]	> 6	4.94 ± 0.6
SAGGGMPLEELKDIPENLPPGARVRLRFPETGEEGVYVLREDGGYTVEVPGGVVEAPEDTEVTEIVPSAGGS [r8_162_TrMRF]	-0.192 ± 0.17	0.414 ± 0.13
SAGGSAGGSAGMRITVEPDRVVVHPPGGEEIVMPAPEWGEEEVLALAEEHPDVEVEPVPPSAGGSAGGSAGG [r17_545_JUSTAS]	< -1	-1.01 ± 0.37
SADPALEAEARARARAEARARGVERLEFELTREVTRESLVRFPGGELREVVERREVRYRVEVEVPPEAASAG [r14_232_JUSTAS]	0.366 ± 0.099	0.963 ± 0.077
SAGGSAGEAEELAEAREAALRAALPPGTVVEVEVEVRVEREGDREEERVEVRVTVREPGTDRLLLESAGGSA [r15_915_JUSTAS]	-0.173 ± 0.57	0.13 ± 0.18
SAGGSAGGSAGGWTLEELKNAPPGEPVTITIPMYSPNGDKKQPMRIRITPDDGEIEIEMSAGGSAGGSAGGS [r10_394_TrROS]	0.406 ± 0.15	0.908 ± 0.13
SAGGSAGGSGTSTSSSGPSTVTITLHTDSPVTLTVPPETTEELAAELKARGYNLEVKVTPAPASAGGSAGGS [r20_124_JUSTAS]	-0.195 ± 0.11	0.161 ± 0.12
SAGGSAGGSASSVSSLSEETLPDGKPVLVRKETVYDPKHGLTGLSVTYYTLGGKKLKTEVVSAGGSAGGSAG [r3_154_JUSTAS]	-0.698 ± 0.22	-0.477 ± 0.26
SAGGMKLTLTFTETSVLPDGTPVTTTSTTPLSPDVPVEEVAAALAETNPDVTVTVHEPSTGSTRTLRTSAGG [r13_663_JUSTAS]	-0.351 ± 0.14	0.0497 ± 0.13
SAGGSAGGSALLEEAGALAAARGWDVEVSPGPVVTVRSPAGREVTITREGDELTVTERELPGDRSAGGSAGG [r6_523_JUSTAS]	-0.308 ± 0.35	0.466 ± 0.18
